Measurements taken from patent US20230218738A1 (Pfizer, published 2023).

B1: MPE8 (antibody, V domains shown)
VH: EVQLVESGGGLVKPGGSLRLSCAASGFTFSSYSMNWVRQAPGKGLEWVSSISASSSYSDYADSAKGRFTISRDNAKTSLFLQMNSLRAEDTAIYFCARARATGYSSITPYFDIWGQGTLVTVSS
VL: QSVVTQTPSVSGAPGQRVTISCTGSSSNIGAGYDVHWYQQLPGTAPKLLIYDNNNRPSGVPDRFSASKSGTSASLAITGLQAEDEADYYCQSYDRNLSGVFGTGTKVTVL
notes: also called MPEG
B2: AM22 (antibody, V domains shown)
VH: QVQLVQSGAEVKKPGATVKVSCKISGHTLIKLSIHWVRQAPGKGLEWMGGYEGEVDEIFYAQKFQHRLTVIADTATDTVYMELGRLTSDDTAVYFCGTLGVTVTEAGLGIDDYWGQGTLVTVSS
VL: EIVLTQSPGTLSLSPGERATLSCRASQIVSRNHLAWYQQKPGQAPRLLIFGASSRATGIPVRFSGSGSGTDFTLTINGLAPEDFAVYYCLSSDSSIFTFGPGTKVDFK

Columns and labels:
Test in all cases: BLI (Octet), F on anti-HIS tip, 20 nM mAb
[1] = biological target: RSV F protein mutant pXCS776 (RSV A2, UniProt P03420 26-109)
[2] = biological target: RSV F protein mutant pXCS749 (RSV A2, UniProt P03420 26-109)
[3] = biological target: RSV F protein mutant pXCS735 (RSV A2, UniProt P03420 26-109)
[4] = biological target: RSV F protein mutant pXCS804 (RSV A2, UniProt P03420 26-109)
[5] = biological target: RSV F protein mutant pXCS806 (RSV A2, UniProt P03420 26-109)
[6] = biological target: RSV F protein mutant pXCS811 (RSV A2, UniProt P03420 26-109)
[7] = biological target: RSV F protein mutant pXCS877 (RSV A2, UniProt P03420 26-109)
[8] = biological target: RSV F protein mutant pXCS875 (RSV A2, UniProt P03420 26-109)
[9] = biological target: RSV F protein mutant pXCS874 (RSV A2, UniProt P03420 26-109)
[10] = biological target: RSV F protein mutant pXCS878 (RSV A2, UniProt P03420 26-109)
[11] = biological target: RSV F protein mutant pXCS876 (RSV A2, UniProt P03420 26-109)
[12] = biological target: RSV F protein mutant pXCS879 (RSV A2, UniProt P03420 26-109)
[13] = biological target: RSV F protein mutant pXCS898 (RSV A2, UniProt P03420 26-109)
[14] = biological target: RSV F protein mutant pXCS897 (RSV A2, UniProt P03420 26-109)
[15] = biological target: RSV F protein mutant pXCS873 (RSV A2, UniProt P03420 26-109)

Binder	Response (nm shift) [1] [nm]	Response (nm shift) [2] [nm]	Response (nm shift) [3] [nm]	Response (nm shift) [4] [nm]	Response (nm shift) [5] [nm]	Response (nm shift) [6] [nm]	Response (nm shift) [7] [nm]	Response (nm shift) [8] [nm]	Response (nm shift) [9] [nm]	Response (nm shift) [10] [nm]	Response (nm shift) [11] [nm]	Response (nm shift) [12] [nm]	Response (nm shift) [13] [nm]	Response (nm shift) [14] [nm]	Response (nm shift) [15] [nm]
B1	0.127	0.206	0.375												
B2				0.267	0.152	0.322	0.213	0.205	0.444	0.324	0.268	0.351	0.416	0.406	0.192
